PMC8104107

Molecular target: T1, influenza A/WSN/33 virus nucleoprotein (NP), recombinant (influenza A virus A/WSN/33 (H1N1)), P15682
T1 chain: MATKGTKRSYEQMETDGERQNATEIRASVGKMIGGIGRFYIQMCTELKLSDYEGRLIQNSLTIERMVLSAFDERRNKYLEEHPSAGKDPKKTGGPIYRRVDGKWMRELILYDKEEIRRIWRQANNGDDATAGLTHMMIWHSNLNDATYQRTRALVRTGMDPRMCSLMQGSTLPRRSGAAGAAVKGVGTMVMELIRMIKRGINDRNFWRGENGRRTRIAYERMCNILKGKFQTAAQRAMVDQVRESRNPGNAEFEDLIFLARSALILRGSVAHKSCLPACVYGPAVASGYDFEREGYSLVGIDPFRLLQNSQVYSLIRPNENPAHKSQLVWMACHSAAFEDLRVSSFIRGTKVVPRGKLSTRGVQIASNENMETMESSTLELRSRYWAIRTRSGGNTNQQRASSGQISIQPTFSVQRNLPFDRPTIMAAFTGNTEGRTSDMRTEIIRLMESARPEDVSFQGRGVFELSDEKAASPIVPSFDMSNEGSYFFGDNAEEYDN
Assay: crystal structure; NP mixed with FA-6005 (final 0.5 mM) before crystallization; 0.1 M sodium acetate, 0.05 M magnesium acetate, 0.1 M MES pH 6.0, 7% PEG 8000, 5% glycerol; space group C222(1), one trimer in each asymmetric unit
Conditions: remark: other sources report otherwise

B1: influenza A/WSN/33 virus nucleoprotein (NP), recombinant, P15682 1-498 (natural protein)
chain: T1 chain
stoichiometry N: 3
